Target: prostate-specific membrane antigen (PSMA) (human, UniProt Q04609 1-750)
Assay: cell-based or functional assay

Chain of prostate-specific membrane antigen (PSMA) (Q04609 whole entry): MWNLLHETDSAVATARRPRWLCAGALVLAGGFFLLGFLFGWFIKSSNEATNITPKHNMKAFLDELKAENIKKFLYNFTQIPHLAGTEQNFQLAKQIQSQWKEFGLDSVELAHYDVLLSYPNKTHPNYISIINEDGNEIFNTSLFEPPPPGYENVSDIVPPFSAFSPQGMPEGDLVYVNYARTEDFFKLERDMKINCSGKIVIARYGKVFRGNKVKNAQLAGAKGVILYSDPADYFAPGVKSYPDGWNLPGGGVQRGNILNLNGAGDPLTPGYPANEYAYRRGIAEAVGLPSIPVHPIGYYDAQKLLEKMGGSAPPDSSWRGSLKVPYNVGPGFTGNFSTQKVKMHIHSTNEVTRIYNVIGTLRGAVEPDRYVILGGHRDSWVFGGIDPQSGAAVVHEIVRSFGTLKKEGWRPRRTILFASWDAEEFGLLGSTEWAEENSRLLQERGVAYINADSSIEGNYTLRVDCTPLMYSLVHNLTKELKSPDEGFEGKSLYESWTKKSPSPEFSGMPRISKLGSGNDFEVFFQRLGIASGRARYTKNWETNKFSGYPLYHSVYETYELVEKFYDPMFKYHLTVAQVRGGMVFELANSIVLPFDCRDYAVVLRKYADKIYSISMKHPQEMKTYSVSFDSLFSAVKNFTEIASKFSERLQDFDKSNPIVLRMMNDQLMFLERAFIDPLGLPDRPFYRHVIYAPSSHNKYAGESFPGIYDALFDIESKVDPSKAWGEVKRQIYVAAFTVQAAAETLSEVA

EC50 of % live cells, GFP-LNCaP growth inhibition assay, 4 days with primary human T-cells (3:1): 15 pM
EC50 of % specific lysis, 51Cr release assay, 4 hours, untreated 22Rv1 target cells with donor T-cells (5:1): 0.8 pM
B1: humanized TSC249 (huVL-VH#2 107-1A4 scFv-Fc-DRA222 scFv) (bispecific antibody)
chain: DIQMTQSPSAMSASVGDRVTITCRASKSISKYLAWFQQKPGKVPKLRIHSGSTLQSGVPSRFSGSGSGTEFTLTISSLQPEDFATYYCQQHIEYPWTFGQGTKVEIKRGGGGSGGGGSGGGGSQVQLVQSGAEVKKPGASVKVSCKASGYTFTDYYMHWVRQAPGQGLEWMGYFNPYNDYTRYAQKFQGRVTMTRDTSISTAYMELSSLRSDDTAVYYCARSDGYYDAMDYWGQGTTVTVSSSEPKSSDKTHTCPPCPAPEAAGAPSVFLFPPKPKDTLMISRTPEVTCVVVDVSHEDPEVKFNWYVDGVEVHNAKTKPREEQYNSTYRVVSVLTVLHQDWLNGKAYACAVSNKALPAPIEKTISKAKGQPREPQVYTLPPSRDELTKNQVSLTCLVKGFYPSDIAVEWESNGQPENNYKTTPPVLDSDGSFFLYSKLTVDKSRWQQGNVFSCSVMHEALHNHYTQKSLSLSPGQRHNNSSLNTGTQMAGHSPNSQVQLVESGGGVVQPGRSLRLSCKASGYTFTRSTMHWVRQAPGQGLEWIGYINPSSAYTNYNQKFKDRFTISADKSKSTAFLQMDSLRPEDTGVYFCARPQVHYDYNGFPYWGQGTPVTVSSGGGGSGGGGSGGGGSAQDIQMTQSPSSLSASVGDRVTMTCSASSSVSYMNWYQQKPGKAPKRWIYDSSKLASGVPARFSGSGSGTDYTLTISSLQPEDFATYYCQQWSRNPPTFGGGTKLQITSSS

— patent US20180022819A1 (APTEVO RESEARCH AND DEVELOPMENT, published 2018)
